B7: VE-Cadherin extracellular domain EC1 (residues 48-155 of full-length VE-Cadherin), tag-free (other)
chain: DWIWNQMHIDEEKNTSLPHHVGKIKSSVSRKNAKYLLKGEYVGKVFRVDAETGDVFAIERLDRENISEYHLTAVIVDKDTGENLETPSSFTIKVHDVNDNWPVFTHRL
notes: Expressed as a GST fusion; also called VE-EC1; VE-Cadherin EC1 domain
B8: human T2-WRS (residues 94-471 of full-length tryptophanyl-tRNA synthetase) with C-terminal His6 tag (enzyme)
chain: SAKGIDYDKLIVRFGSSKIDKELINRIERATGQRPHHFLRRGIFFSHRDMNQVLDAYENKKPFYLYTGRGPSSEAMHVGHLIPFIFTKWLQDVFNVPLVIQMTDDEKYLWKDLTLDQAYSYAVENAKDIIACGFDINKTFIFSDLDYMGMSSGFYKNVVKIQKHVTFNQVKGIFGFTDSDCIGKISFPAIQAAPSFSNSFPQIFRDRTDIQCLIPCAIDQDPYFRMTRDVAPRIGYPKPALLHSTFFPALQGAQTKMSASDPNSSIFLTDTAKQIKTKVNKHAFSGGRDTIEEHRQFGGNCDVDVSFMYLTFFLEDDDKLEQIRKDYTSGAMLTGELKKALIEVLQPLIAEHQARRKEVTDEIVKEFMTPRKLSFDFQHHHHHH
notes: In monomer-dimer equilibrium; also called WT T2-WRS; WT T2-TrpRS

Tests used:
[1] = target: the molecule itself; assay: disulfide crosslinking across the dimer interface, SDS-PAGE with and without DTT
Experimental: All proteins were expressed and purified as mentioned above, except that no beta-mercaptoethanol was added. The purified proteins were diluted to 1 mg/ml in 25 mM HEPES (pH7.5, 150 mM NaCl) and incubated for 15 minutes at 4° C. with or without 10 mM DTT (dithiothreitol). Proteins samples (10 μl) were mixed with an equal amount of 2× loading buffer (without reducing reagent) and boiled for 1 min before loading onto a SDS-PAGE gel.

[2] = target: the molecule itself; assay: gel filtration chromatography as a function of protein concentration; dimer-monomer equilibrium
Experimental: (§1) Each protein sample (200 μl of 20 μM) was injected to Superdex 200 chromatography column (GE Healthcare, 10/300GL) in PBS containing 5 mM β-mercaptoethanol. The column was then calibrated by standard proteins. […] To determine the dissociation constant for dimer-monomer equilibrium, gel chromatography was carried out as a function of protein concentration.

[3] = target: the molecule itself; assay: gel chromatography; dimer-monomer equilibrium, reference Δ159-161 mini-YRS
Experimental: as §1

[4] = target: the molecule itself; assay: gel chromatography with immunoblotting of fractions (YRS polyclonal antibody); dimer-monomer equilibrium
Experimental: as §1

[5] = target: the molecule itself; assay: Superdex 200 gel filtration, 0.5-2 µM, self-association
Experimental: E. coli Flavodoxin was inserted at the position of G310 on the peripheral region of the KRS dimer interface. The linker was kept short to reduce the potential structural flexibility. […] All proteins were loaded at a concentration range of 0.5-2 μM. […] BSA is bovine serum albumin.
The peak fractions were analyzed by SDS-PAGE and visualized by Coomassie blue staining.

[6] = target: B7; assay: SPR (Biacore), T2-WRS variant amine-coupled to CM5 chip, EC1 domain in flow, 0.1 mM ZnCl2, kinetic titration fitting; monomer F260EY201EI278E T2-WRS on the chip, EC1 in flow
[7] = target: B8; assay: SPR (Biacore), T2-WRS amine-coupled to CM5 chip, EC1 domain in flow, 0.1 mM ZnCl2, kinetic titration fitting; WT T2-WRS on the chip, EC1 in flow
[8] = target: the molecule itself; assay: size exclusion chromatography, percent dimer plotted against protein concentration; dimer-monomer dissociation constant
[9] = target: the molecule itself; assay: size exclusion chromatography, 100 nM to 10 uM; percentage of dimers against concentration; dimer-monomer dissociation constant

B1: Flavo-KRS (70-584) with T285C mutation (enzyme)
chain: SVDPNQYYKIRSQAIHQLKVNGEDPYPHKFHVDISLTDFIQKYSHLQPGDHLTDITLKVAGRIHAKRASGGKLIFYDLRGEGVKLQVMANSRNYKSEEEFIHINNKLRRGDIIGVQGNPGKTKKGELSIIPYEITLLSPCLHMLPHLHFGLKDKETRYRQRYLDLILNDFVRQKFIIRSKIITYIRSFLDELGFLEIETPMMNIIPGGAVAKPFICYHNELDMNLYMRIAPELYHKMLVVGNMGLFYGSSTCYTEMAAEKIRDIIGPELVTLHNLKDDSPKLMEQYDVLILGIPTWDFGEIQEDWEAVWDQLDDLNLEGKIVALYGLGDQLGYGEWFLDALGMLHDKLSTKGVKFVGYWPTEGYEFTSPKPVIADGQLFVGLALDETNQYDLSDERIQSWCEQILNEMARVYEIGRQFRNEGIDLTHNPEFTTCEFYMAYADYHDLMEITEKMVSGMVKHITGSYKVTYHPDGPEGQAYDVDFTPPFRRINMVEELEKALGMKLPETNLFETEETRKILDDICVAKAVECPPPRTTARLLDKLVGEFLEVTCINPTFICDHPQIMSPLAKWHRSKEGLTERFELFVMKKEICNAYTELNDPMRQRQLFEEQAKAKAAGDDEAMFIDENFCTALEYGLPPTAGWGMGIDRVAMFLTDSNNIKEVLLFPAMKPEDKKENVATAGHHHHHH
notes: also called T285C Flavo-KRS
[1]
  binding result: no binding

B2: non-associating monomeric Δ159-161 variant of mini-YRS (enzyme)
chain: MGDAPSPEEKLHLITRNLQEVLGEEKLKEILKERELKIYWGTATTGKPHVAYFVPMSKIADFLKAGCEVTILFADLHAYLDNMKAPWELLELRVSYYENVIKAMLESIGVPLEKLKFIKGTDYQLSKEYTLDVYRLSSVVTQHDSKKAGAEVVKQVEHSGLLYPGLQALDEEYLKVDAQFGGIDQRKIFTFAEKYLPALGYSKRVHLMNPMVPGLTGSKMSSSEEESKIDLLDRKEDVKKKLKKAFCEPGNVENNGVLSFIKHVLFPLKSEFVILRDEKWGGNKTYTAYVDLEKDFAAEVVHPGDLKNSVEVALNKLLDPIREKFNTPALKKLASAAYPDPSKQKPMAKGPAKNSEPEEVI
notes: also called the monomer
[2]
  Kd: ~100000 nM

B3: native human KRS (70-584) with T285C mutation (enzyme)
chain: not shown
modifications: disulfide between Cys 285 of the two subunits in the absence of DTT
notes: also called native KRST285C
[1]
  binding result: binds

B4: wild-type (WT) human mini-YRS (N-terminal fragment of human tyrosyl-tRNA synthetase) (enzyme)
chain: MGDAPSPEEKLHLITRNLQEVLGEEKLKEILKERELKIYWGTATTGKPHVAYFVPMSKIADFLKAGCEVTILFADLHAYLDNMKAPWELLELRVSYYENVIKAMLESIGVPLEKLKFIKGTDYQLSKEYTLDVYRLSSVVTQHDSKKAGAEVVKQVEHPLLSGLLYPGLQALDEEYLKVDAQFGGIDQRKIFTFAEKYLPALGYSKRVHLMNPMVPGLTGSKMSSSEEESKIDLLDRKEDVKKKLKKAFCEPGNVENNGVLSFIKHVLFPLKSEFVILRDEKWGGNKTYTAYVDLEKDFAAEVVHPGDLKNSVEVALNKLLDPIREKFNTPALKKLASAAYPDPSKQKPMAKGPAKNSEPEEVI
notes: In monomer-dimer equilibrium; also called WT mini-YRS; mini-tyrosyl tRNA synthetase
[3]
  fold lower dimer-monomer dissociation constant than Δ159-161: ~1000 fold
[4]
  Kd: ~100 nM

B5: truncated human KRS (residues 70-584 of full-length lysyl-tRNA synthetase) with C-terminal 6xHis tag (enzyme)
chain: not shown
notes: Homodimer (alpha2) in solution; also called native human KRS (70-584); native KRS
[5]
  binding result: binds

B6: F260EY201EI278E T2-WRS variant (stable monomer) (enzyme)
chain: SAKGIDYDKLIVRFGSSKIDKELINRIERATGQRPHHFLRRGIFFSHRDMNQVLDAYENKKPFYLYTGRGPSSEAMHVGHLIPFIFTKWLQDVFNVPLVIQMTDDEKELWKDLTLDQAYSYAVENAKDIIACGFDINKTFIFSDLDYMGMSSGFYKNVVKIQKHVTENQVKGIFGFTDSDCIGKESFPAIQAAPSFSNSFPQIFRDRTDIQCLIPCAIDQDPYFRMTRDVAPRIGYPKPALLHSTFFPALQGAQTKMSASDPNSSIFLTDTAKQIKTKVNKHAFSGGRDTIEEHRQFGGNCDVDVSFMYLTFFLEDDDKLEQIRKDYTSGAMLTGELKKALIEVLQPLIAEHQARRKEVTDEIVKEFMTPRKLSFDFQHHHHHH
notes: Residue numbers of the mutations are those of full-length WRS; also called monomer T2-WRS; T2-WRS (F260EY201EI278E)
[6]
  Kd: 1340 nM

## B7
[7]
  Kd: 1520 nM

## B8
[8]
  Kd: 472 nM
[9]
  Kd: 437 nM

Source: patent publication US20150132277A1 (Scripps Research, published 2015)
